According to US20040147006:

Key:
[1] = system: unphosphorylated peptide T-2 13 (SEQ ID NO: 3)
[2] = system: phosphorylated T-ag peptide of SEQ ID NO: 15 used in the ATPase assay
[3] = system: unphosphorylated peptide E1-P2 25 (SEQ ID NO: 2)
[4] = system: phosphorylated peptide E1-P1 25 (SEQ ID NO: 18)

SV40 T-antigen (T-ag)
ATPase of T-ag (32P-ATP hydrolysis, TLC autoradiography) [1]: this peptide inhibited the ATPase of T-ag
ATPase of T-ag (32P-ATP hydrolysis, TLC autoradiography) [2]: the phosphorylated peptide did not modulate the ATPase of T-ag activity
ATPase of T-ag (32P-ATP hydrolysis, TLC autoradiography) [3]: blocked the degradation of ATP by T-ag
ATPase of T-ag (32P-ATP hydrolysis, TLC autoradiography) [4]: had no effect
